{"source": "patent US20070098718A1", "about": "(Novartis, published 2007)", "binders": {"B1": {"name": "monoclonal antibody CHIR-5.9 (antibody, human IgG1, kappa, V domains shown)", "VH": "EVQLVQSGAEVKKPGESLKISCKGSGYSFTSYWIGWVRQMPGKGLEWMGIIYPGDSDTRYSPSFQGQVTISADKSISTAYLQWSSLKASDTAMYYCARGTAAGRDYYYYYGMDVWGQGTTVTVSS", "VL": "AIVMTQPPLSSPVTLGQPASISCRSSQSLVHSDGNTYLNWLQQRPGQPPRLLIYKFFRRLSGVPDRFSGSGAGTDFTLKISRVEAEDVGVYYCMQVTQFPHTFGQGTRLEIKR", "notes": "Fully human IgG1 kappa anti-human CD40 mAb; also called mAb CHIR-5.9; antibody of hybridoma 131.2F8.5.9"}, "B2": {"name": "monoclonal antibody CHIR-12.12 (antibody, human IgG1, kappa, V domains shown)", "VH": "QVQLVESGGGVVQPGRSLRLSCAASGFTFSSYGMHWVRQAPGKGLEWVAVISYEESNRYHADSVKGRFTISRDNSKITLYLQMNSLRTEDTAVYYCARDGGIAAPGPDYWGQGTLVTVSS", "VL": "DIVMTQSPLSLTVTPGEPASISCRSSQSLLYSNGYNYLDWYLQKPGQSPQVLISLGSNRASGVPDRFSGSGSGTDFTLKISRVEAEDVGVYYCMQARQTPFTFGPGTKVDIRR", "notes": "Fully human IgG1 kappa anti-human CD40 mAb; also called antibody of hybridoma 153.8E2.D10.D6.12.12"}}, "target": "T1, Recombinant soluble CD40-his (human, UniProt P25942 21-193, limits assumed)", "T1 construct": "not shown: his tag", "T1 sequence (P25942 21-193 limits assumed)": "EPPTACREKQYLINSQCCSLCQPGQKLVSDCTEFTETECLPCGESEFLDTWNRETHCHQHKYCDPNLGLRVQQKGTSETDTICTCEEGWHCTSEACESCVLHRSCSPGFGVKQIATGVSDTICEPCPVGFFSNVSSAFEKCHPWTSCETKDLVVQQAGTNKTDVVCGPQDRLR", "test": "binding affinity to human CD40 (Biacore per paragraph 64)", "data": [{"binder": "B1", "values": [{"measurement": "Kd", "result": 12, "unit": "nM"}]}, {"binder": "B2", "values": [{"measurement": "Kd", "result": 0.5, "unit": "nM"}]}]}
